In patent US20160032013:

Tests used:
[1] = target: Recombinant human pro-MSP 689C (C672A, R689C, His tag), uncleaved single chain
[2] = target: Recombinant human pro-MSP 689R (C672A, His tag), uncleaved single chain
Recombinant human pro-MSP 689R (C672A, His tag), uncleaved single chain, sequence (chain, as listed by the source C672A): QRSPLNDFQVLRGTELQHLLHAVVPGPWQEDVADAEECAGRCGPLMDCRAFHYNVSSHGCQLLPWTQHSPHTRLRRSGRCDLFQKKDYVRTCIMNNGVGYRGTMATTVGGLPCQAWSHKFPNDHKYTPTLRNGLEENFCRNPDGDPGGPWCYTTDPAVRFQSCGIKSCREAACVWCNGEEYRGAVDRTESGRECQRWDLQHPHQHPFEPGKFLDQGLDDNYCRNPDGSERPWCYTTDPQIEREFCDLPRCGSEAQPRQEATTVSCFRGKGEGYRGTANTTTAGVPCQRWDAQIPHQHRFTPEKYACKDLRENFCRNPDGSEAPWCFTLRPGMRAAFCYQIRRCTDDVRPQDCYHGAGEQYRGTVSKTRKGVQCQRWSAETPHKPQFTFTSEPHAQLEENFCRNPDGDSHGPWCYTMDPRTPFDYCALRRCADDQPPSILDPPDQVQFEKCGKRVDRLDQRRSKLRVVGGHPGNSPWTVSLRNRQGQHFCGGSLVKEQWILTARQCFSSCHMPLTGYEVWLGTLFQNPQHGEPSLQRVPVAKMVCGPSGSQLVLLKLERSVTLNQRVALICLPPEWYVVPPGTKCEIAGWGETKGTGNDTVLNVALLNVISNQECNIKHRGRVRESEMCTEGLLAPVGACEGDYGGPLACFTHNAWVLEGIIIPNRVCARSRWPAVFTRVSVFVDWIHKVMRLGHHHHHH

Recombinant human pro-MSP 689C (C672A, R689C, His tag), uncleaved single chain, sequence (chain, as listed by the source C672A R689C): as the sequence (chain, as listed by the source C672A) above, with R671C counted along it

B1: sHepsin (extracellular domain of human recombinant hepsin with C-terminal His-tag) (protein)
chain: RSDQEPLYPVQVSSADARLMVFDKTEGTWRLLCSSRSNARVAGLSCEEMGFLRALTHSELDVRTAGANGTSGFFCVDEGRLPHTQRLLEVISVCDCPRGRFLAAICQDCGRRKLPVDDDDKIVGGRDTSLGRWPWQVSLRYDGAHLCGGSLLSGDWVLTAAHCFPERNRVLSRWRVFAGAVAQASPHGLQLGVQAVVYHGGYLPFRDPNSEENSNDIALVHLSSPLPLTEYIQPVCLPAAGQALVDGKICTVTGWGNTQYYGQQAGVLQEARVPIISNDVCNGADFYGNQIKPKMFCAGYPEGGIDACQGDSGGPFVCEDSISRTPRWRLCGIVSWGTGCALAQKPGVYTKVSDFREWIFQAIKTHSEASGMVTQLHHHHHHHH
proteolytic cleavage of pro-MSP by hepsin, SDS-PAGE under reducing conditions, 1 h at 37 C [1]: No obvious difference was observed in the concentration of hepsin required to completely cleave these variants over a 1-hour period
proteolytic cleavage of pro-MSP by hepsin, SDS-PAGE under reducing conditions, 1 h at 37 C [2]: No obvious difference was observed in the concentration of hepsin required to completely cleave these variants over a 1-hour period
